Substitutions are numbered along the chain they refer to. Numbers in names are those of the source.

The results in this text go back to doi:10.1101/498196 (bioRxiv, 2018).

The series “AUC” deals with the molecule itself. The series is described as follows: AUC.
The series “crystal structure” deals with the molecule itself. As to the kind of experiment: crystal structure.
The series “bead aggregation assay” concerns the molecule itself. The series is described as follows: bead aggregation assay.

B1: PCDH1 EC1-5 C375S C548S (domain or fragment)
chain: TRVVYKVPEEQPPNTLIGSLAADYGFPDVGHLYKLEVGAPYLRVDGKTGDIFTTETSIDREGLRECQNQLPGDPCILEFEVSITDLVQNGSPRLLEGQIEVQDINDNTPNFASPVITLAIPENTNIGSLFPIPLASDRDAGPNGVASYELQAGPEAQELFGLQVAEDQEEKQPQLIVMGNLDRERWDSYDLTIKVQDGGSPPRASSALLRVTVLDTNDNAPKFERPSYEAELSENSPIGHSVIQVKANDSDQGANAEIEYTFHQAPEVVRRLLRLDRNTGLITVQGPVDREDLSTLRFSVLAKDRGTNPKSARAQVVVTVKDMNDNAPTIEIRGIGLVTHQDGMANISEDVAEETAVALVQVSDRDEGENAAVTSVVAGDVPFQLRQASETGSDSKKKYFLQTTTPLDYEKVKDYTIEIVAVDSGNPPLSSTNSLKVQVVDVNDNAPVFTQSVTEVAFPENNKPGEVIAEITASDADSGSNAELVYSLEPEPAAKGLFTISPETGEIQVKTSLDREQRESYELKVVAADRGSPSLQGTATVLVNVLDSNDND
On to B1, for which, in the series “AUC”, the Kd (commonly a measure of binding affinity in units of concentration) is below 5 µM and the stoichiometry N (usually the number of molecules, sites or subunits per partner or assembly) turned out to be 2.

B2: PCDH1 EC1-5 C375S C548S V115R (domain or fragment)
chain: B1 chain with V115R
For the protein B2, the “stoichiometry N” value in “AUC” came to 2.

B3: hs PCDH1 EC1-4bc (domain or fragment)
chain: TRVVYKVPEEQPPNTLIGSLAADYGFPDVGHLYKLEVGAPYLRVDGKTGDIFTTETSIDREGLRECQNQLPGDPCILEFEVSITDLVQNGSPRLLEGQIEVQDINDNTPNFASPVITLAIPENTNIGSLFPIPLASDRDAGPNGVASYELQAGPEAQELFGLQVAEDQEEKQPQLIVMGNLDRERWDSYDLTIKVQDGGSPPRASSALLRVTVLDTNDNAPKFERPSYEAELSENSPIGHSVIQVKANDSDQGANAEIEYTFHQAPEVVRRLLRLDRNTGLITVQGPVDREDLSTLRFSVLAKDRGTNPKSARAQVVVTVKDMNDNAPTIEIRGIGLVTHQDGMANISEDVAEETAVALVQVSDRDEGENAAVTCVVAGDVPFQLRQASETGSDSKKKYFLQTTTPLDYEKVKDYTIEIVAVDSGNPPLSSTNSLKVQVVDVNDNA
Turning to B3, in the series “crystal structure”, the binding result is listed as “binds”.

B4: hs PCDH1 EC1-4mc (domain or fragment)
chain: B3 chain
modifications: sugars observed at N248 (N-linked) and S430 (O-linked)
As for B4, the binding result in the series “crystal structure” is “binds”.

B5: PCDH1 EC1-4 C375S (domain or fragment)
chain: B3 chain with C375S
On to B5, for which, in “AUC”, the Kd is below 5 µM and the “stoichiometry N” value was determined as 2.

B6: PCDH1 EC1-4Fc (Fc fusion)
chain: B3 chain
With B6, in “bead aggregation assay”, the binding result is “binds”.

B7: PCDH1 EC1-7Fc (Fc fusion)
chain: TRVVYKVPEEQPPNTLIGSLAADYGFPDVGHLYKLEVGAPYLRVDGKTGDIFTTETSIDREGLRECQNQLPGDPCILEFEVSITDLVQNGSPRLLEGQIEVQDINDNTPNFASPVITLAIPENTNIGSLFPIPLASDRDAGPNGVASYELQAGPEAQELFGLQVAEDQEEKQPQLIVMGNLDRERWDSYDLTIKVQDGGSPPRASSALLRVTVLDTNDNAPKFERPSYEAELSENSPIGHSVIQVKANDSDQGANAEIEYTFHQAPEVVRRLLRLDRNTGLITVQGPVDREDLSTLRFSVLAKDRGTNPKSARAQVVVTVKDMNDNAPTIEIRGIGLVTHQDGMANISEDVAEETAVALVQVSDRDEGENAAVTCVVAGDVPFQLRQASETGSDSKKKYFLQTTTPLDYEKVKDYTIEIVAVDSGNPPLSSTNSLKVQVVDVNDNAPVFTQSVTEVAFPENNKPGEVIAEITASDADSGSNAELVYSLEPEPAAKGLFTISPETGEIQVKTSLDREQRESYELKVVAADRGSPSLQGTATVLVNVLDCNDNDPKFMLSGYNFSVMENMPALSPVGMVTVIDGDKGENAQVQLSVEQDNGDFVIQNGTGTILSSLSFDREQQSTYTFQLKAVDGGVPPRSAYVGVTINVLDENDNAPYITAPSNTSHKLLTPQTRLGETVSQVAAEDFDSGVNAELIYSIAGGNPYGLFQIGSHSGAITLEKEIERRHHGLHRLVVKVSDRGKPPRYGTALVHLYVNETLANRTLLETLLGHSLDTPLDIDIAGDPEYERSKQRGN
Consider B7, for which the binding result in the series “bead aggregation assay” was “binds”.

B8: PCDH1 EC1-7Fc C375S C548S (Fc fusion)
chain: B7 chain with C375S, C548S
Regarding B8, the binding result in “bead aggregation assay” is reported as “binds”.

B9: PCDH1 EC1-7Fc V115R (Fc fusion)
chain: B7 chain with V115R
With B9, in the series “bead aggregation assay”, the binding result is listed as “binds”.
